Results: patent US20230228751 (APTAMER DIAGNOSTICS LIMITED, published 2023)

B1: S2_A2_F17 (ssDNA)
DNA: AATGCCGATGGGTCGGGGGGGTGGG
B2: S2_G1_F22 (ssDNA)
DNA: TGGATATGGGTGGGAGGGATGGGT
B3: S1_A3_F18 (ssDNA)
DNA: AATGCGTGGGAAGGGTGGGTGGGAGCATTGATA
B4: S2_B1_F18 (ssDNA)
DNA: AATGCCGTGGACTGGTCGGGTTTGGATTCGGCA

Experiments:
[1] = target: SARS-CoV-2 spike S2 subunit (SARS-CoV-2, UniProt P0DTC2 SEQ:1-528); assay: BLI; conditions: label: 5'-biotin
[2] = target: SARS-CoV-2 spike protein trimer (SARS-CoV-2, UniProt P0DTC2); assay: BLI; conditions: label: 5'-biotin
Description: The aptamers described herein have been isolated using recombinant proteins which represent portions of the full viral surface spike protein (SEQ ID NO: 117). In particular, an amino acid sequence comprising residues Ser686 to Pro1213 of SEQ ID NO: 119 was used to isolate aptamers against the S2 subunit from the SARS-CoV-2 spike protein. For diagnostic and therapeutic applications of the aptamers, it is desirable that the aptamers are capable of binding to the spike protein in the full trimeric form. For example, any aptamers which bind to regions of the monomer which are not accessible in the trimeric spike may not be capable of binding to the virus and so would be less likely to perform well as a diagnostic or therapeutic. Several of the isolated aptamers and Optimers isolated against the S2 subunit of the SARS-CoV-2 spike protein (SEQ ID NO:119), were assessed for binding to the full trimeric spike using the BLI assay described above. Briefly, exemplar Optimers were immobilised onto BLI sensor probes and assessed for the ability to bind to the full SARS-CoV-2 spike protein trimer at a range of concentrations (500 nM, 166 nM, 55 nM, 18.5 nM, 6.1 nM, 2 nM and 0.6 nM in 1× ‘high salt’ aptamer selection buffer). […] Importantly, each of the S2_A2_F12 SEQ ID NO: 179), S2_B1_F12 SEQ ID NO: 188) and S2_G1_F21 (SEQ ID NO: 190) aptamers has a rapid association rate (0-120 sec) and a slow dissociation rate (120-240 sec); which may be important for many diagnostic applications.

[3] = target: SARS-CoV-2 spike S1 subunit (SARS-CoV-2, UniProt P0DTC2 SEQ:1-670); assay: BLI; conditions: tags: His tag, SinoBiological 40591-V08B1; label: 5'-biotin
[4] = target: SARS-CoV spike S1 subunit (SARS-CoV, UniProt P59594 SEQ:14-667); assay: ELONA; conditions: tags: SinoBiological; label: 5'-biotin

| Binder | binding result [1] | binding result [2] | binding result [3] | binding result [4] |
| --- | --- | --- | --- | --- |
| B1 | binds | binds |  |  |
| B2 | binds | binds |  |  |
| B3 |  |  | binds | no binding |
| B4 | binds | binds |  |  |
